Test results taken from patent US20240060126.

How the values were obtained:
[1] = target: MspA-((Del-L74/G75/D118/L119)D56N/E59W/L88N/D90N/D91N/Q126R/D134R/E139K)8
[2] = target: MspA-((Del-L74/G75/D118/L119)D56N/E59F/L88N/D90N/D91N/Q126R/D134R/E139K)8
[3] = target: MspA-(D56N/E59R/G75S/G77S/L88N/D90N/D91N/D118R/Q126R/D134R/E139K)8
[4] = target: MspA-((Del-L74/G75/D118/L119)D56N/E59T/L88N/D90N/D91N/Q126R/D134R/E139K)8
[5] = target: MspA-((Del-L74/G75/D118/L119)D56N/E59R/L88N/D90N/D91N/Q126R/D134N/E139K)8
[6] = target: MspA-((Del-L74/G75/D118/L119)D56N/E59R/L88N/D90N/D91N/Q126R/D134R/E139K)8
[7] = target: MspA-((Del-L74/G75/D118/L119)E59Y/L88N/D90N/D91N/Q126R/D134R/E139K)8
[8] = target: MspA-((Del-L74/G75/D118/L119)D56N/E57N/E59N/L88N/D90N/D91N/Q126R/D134R/E139K)8
[9] = target: MspA-((Del-L74/G75/D118/L119)D56N/E57D/E59R/L88N/D90N/D91N/Q126R/D134R/E139K)8
[10] = target: MspA-((Del-L74/G75/D118/L119)D56N/E59Q/L88N/D90N/D91N/Q126R/D134R/E139K)8
[11] = target: MspA-((Del-L74/G75/D118/L119)D56W/E59R/L88N/D90N/D91N/Q126R/D134R/E139K)8

B1: T4 Dda-E94C/C109A/C136A/A360C (SEQ ID NO: 24 with mutations E94C/C109A/C136A/A360C) (protein)
chain: MTFDDLTEGQKNAFNIVMKAIKEKKHHVTINGPAGTGKTTLTKFIIEALISTGETGIILAAPTHAAKKILSKLSGKEASTIHSILKINPVTYECNVLFEQKEVPDLAKARVLICDEVSMYDRKLFKILLSTIPPWATIIGIGDNKQIRPVDPGENTAYISPFFTHKDFYQCELTEVKRSNAPIIDVATDVRNGKWIYDKVVDGHGVRGFTGDTALRDFMVNYFSIVKSLDDLFENRVMAFTNKSVDKLNSIIRKKIFETDKDFIVGEIIVMQEPLFKTYKIDGKPVSEIIFNNGQLVRIIEAEYTSTFVKARGVPGEYLIRHWDLTVETYGDDEYYREKIKIISSDEELYKFNLFLGKTCETYKNWNKGGKAPWSDFWDAKSQFSKVKALPASTFHKAQGMSVDRAFIYTPCIHYADVELAQQLLYVGVTRGRYDVFYV
Average Signal to Noise (S2N) [1]: 11 | Mean Current Range [1]: 15.2 pA | Mean Noise of the Signal [1]: 1.38 | Median Current Range [1]: 15.1 pA | Median Noise of the Signal [1]: 1.32 | Standard Deviation of the Current Range [1]: 1.85 | Standard Deviation of the Noise of the Signal [1]: 0.26 | Average Signal to Noise (S2N) [2]: 12.8 | Mean Current Range [2]: 15.8 pA | Mean Noise of the Signal [2]: 1.24 | Median Current Range [2]: 15.7 pA | Median Noise of the Signal [2]: 1.17 | Median S2N [2]: 12.8 | Percentage of complement slipping forwards [2]: 0.25% | Standard Deviation of S2N [2]: 0.12 | Standard Deviation of the Current Range [2]: 1.86 pA | Standard Deviation of the Noise of the Signal [2]: 0.27 | Average Signal to Noise (S2N) [3]: 11.9 | Mean Current Range [3]: 15.6 pA | Mean Noise of the Signal [3]: 1.31 | Median Current Range [3]: 15.6 pA | Median Noise of the Signal [3]: 1.24 | Standard Deviation of the Current Range [3]: 1.76 | Standard Deviation of the Noise of the Signal [3]: 0.26 | Average Signal to Noise (S2N) [4]: 12.3 | Mean Current Range [4]: 16 pA | Mean Noise of the Signal [4]: 1.31 | Median Current Range [4]: 16.1 pA | Median Noise of the Signal [4]: 1.26 | Median S2N [4]: 12.6 | Percentage of complement slipping forwards [4]: 0.8% | Standard Deviation of S2N [4]: 0.87 | Standard Deviation of the Current Range [4]: 1.87 pA | Standard Deviation of the Noise of the Signal [4]: 0.24 | Average Signal to Noise (S2N) [5]: 12.2 | Mean Current Range [5]: 16 pA | Mean Noise of the Signal [5]: 1.31 | Median Current Range [5]: 16.1 pA | Median Noise of the Signal [5]: 1.27 | Median S2N [5]: 12 | Percentage of complement slipping forwards [5]: 0.65% | Standard Deviation of S2N [5]: 0.57 | Standard Deviation of the Current Range [5]: 1.93 pA | Standard Deviation of the Noise of the Signal [5]: 0.21 | Average Signal to Noise (S2N) [6]: 12.5 | Mean Current Range [6]: 15.3 pA | Mean Noise of the Signal [6]: 1.22 | Median Current Range [6]: 15.3 pA | Median Noise of the Signal [6]: 1.17 | Percentage of complement slipping forwards [6]: 0.49% | Standard Deviation of the Current Range [6]: 1.66 pA | Standard Deviation of the Noise of the Signal [6]: 0.2 | slips forward per kilobase [6]: less than 5 slips forward per kilobase | Average Signal to Noise (S2N) [7]: 11 | Mean Current Range [7]: 15 pA | Mean Noise of the Signal [7]: 1.36 | Median Current Range [7]: 14.9 pA | Median Noise of the Signal [7]: 1.32 | Median S2N [7]: 11.9 | Percentage of complement slipping forwards [7]: 0.27% | Standard Deviation of S2N [7]: 1.17 | Standard Deviation of the Current Range [7]: 1.72 | Standard Deviation of the Noise of the Signal [7]: 0.23 | Average Signal to Noise (S2N) [8]: 13 | Mean Current Range [8]: 19 pA | Mean Noise of the Signal [8]: 1.46 | Median Current Range [8]: 19.2 pA | Median Noise of the Signal [8]: 1.35 | Standard Deviation of the Current Range [8]: 2.07 pA | Standard Deviation of the Noise of the Signal [8]: 0.36 | Average Signal to Noise (S2N) [9]: 12.9 | Mean Current Range [9]: 15.4 pA | Mean Noise of the Signal [9]: 1.19 | Median Current Range [9]: 15.4 pA | Median Noise of the Signal [9]: 1.16 | Median S2N [9]: 11.9 | Percentage of complement slipping forwards [9]: 0.7% | Standard Deviation of S2N [9]: 0.33 | Standard Deviation of the Current Range [9]: 1.77 pA | Standard Deviation of the Noise of the Signal [9]: 0.19 | Average Signal to Noise (S2N) [10]: 12.8 | Mean Current Range [10]: 15.6 pA | Mean Noise of the Signal [10]: 1.22 | Median Current Range [10]: 15.5 pA | Median Noise of the Signal [10]: 1.16 | Median S2N [10]: 13.3 | Percentage of complement slipping forwards [10]: 0.55% | Standard Deviation of S2N [10]: 0.86 | Standard Deviation of the Current Range [10]: 1.72 pA | Standard Deviation of the Noise of the Signal [10]: 0.25 | Average Signal to Noise (S2N) [11]: 10.7 | Mean Current Range [11]: 14.4 pA | Mean Noise of the Signal [11]: 1.35 | Median Current Range [11]: 14.3 pA | Median Noise of the Signal [11]: 1.28 | Median S2N [11]: 11.9 | Percentage of complement slipping forwards [11]: 0.25% | Standard Deviation of S2N [11]: 0.33 | Standard Deviation of the Current Range [11]: 1.79 | Standard Deviation of the Noise of the Signal [11]: 0.26
